Here are results for 34 variants from the Human Domainome abundance scans (Beltran et al. 2025).

± gives the uncertainty stated by the source.

To fix the notation:
B1: Gamma-crystallin S, residues 96 to 176; numbered along this chain, P22914 (parent)
chain: IQIFEKGDFSGQMYETTEDCPSIMEQFHMREIHSCKVLEGVWIFYELPNYRGRQYLLDKKEYRKPIDWGAASPAVQSFRRI

The variants in the data set derive from B1. As to the kind of experiment: abundance fitness (aPCA) (normalised: wild type 0, dead -1); higher = more abundant; growth selection in yeast, the domain comes from the species named. To be noted: Homo sapiens.
For IQISEKGDFSGQMYETTEDCPSIMEQFHMREIHSCKVLEGVWIFYELPNYRGRQYLLDKKEYRKPIDWGAASPAVQSFRRI, the abundance fitness is -0.113 ± 0.031. In the case of IQIWEKGDFSGQMYETTEDCPSIMEQFHMREIHSCKVLEGVWIFYELPNYRGRQYLLDKKEYRKPIDWGAASPAVQSFRRI, the abundance fitness is -0.067 ± 0.056. Regarding IQIREKGDFSGQMYETTEDCPSIMEQFHMREIHSCKVLEGVWIFYELPNYRGRQYLLDKKEYRKPIDWGAASPAVQSFRRI, the abundance fitness is -0.945 ± 0.11. In the case of IQIPEKGDFSGQMYETTEDCPSIMEQFHMREIHSCKVLEGVWIFYELPNYRGRQYLLDKKEYRKPIDWGAASPAVQSFRRI, the abundance fitness was -0.967 ± 0.18. To IQIYEKGDFSGQMYETTEDCPSIMEQFHMREIHSCKVLEGVWIFYELPNYRGRQYLLDKKEYRKPIDWGAASPAVQSFRRI belongs -0.094 ± 0.096. To IQINEKGDFSGQMYETTEDCPSIMEQFHMREIHSCKVLEGVWIFYELPNYRGRQYLLDKKEYRKPIDWGAASPAVQSFRRI belongs -0.231 ± 0.11; to IQITEKGDFSGQMYETTEDCPSIMEQFHMREIHSCKVLEGVWIFYELPNYRGRQYLLDKKEYRKPIDWGAASPAVQSFRRI, -0.585 ± 0.094; to IQIQEKGDFSGQMYETTEDCPSIMEQFHMREIHSCKVLEGVWIFYELPNYRGRQYLLDKKEYRKPIDWGAASPAVQSFRRI, -0.868 ± 0.14. To IQIVEKGDFSGQMYETTEDCPSIMEQFHMREIHSCKVLEGVWIFYELPNYRGRQYLLDKKEYRKPIDWGAASPAVQSFRRI belongs -0.906 ± 0.082.

Turning to IQIFQKGDFSGQMYETTEDCPSIMEQFHMREIHSCKVLEGVWIFYELPNYRGRQYLLDKKEYRKPIDWGAASPAVQSFRRI, the abundance fitness is 0.12 ± 0.092. To IQIFMKGDFSGQMYETTEDCPSIMEQFHMREIHSCKVLEGVWIFYELPNYRGRQYLLDKKEYRKPIDWGAASPAVQSFRRI belongs 0.028 ± 0.12. To IQIFSKGDFSGQMYETTEDCPSIMEQFHMREIHSCKVLEGVWIFYELPNYRGRQYLLDKKEYRKPIDWGAASPAVQSFRRI belongs -0.046 ± 0.04. Turning to IQIFYKGDFSGQMYETTEDCPSIMEQFHMREIHSCKVLEGVWIFYELPNYRGRQYLLDKKEYRKPIDWGAASPAVQSFRRI, the abundance fitness came out at 0.083 ± 0.1. As to IQIFKKGDFSGQMYETTEDCPSIMEQFHMREIHSCKVLEGVWIFYELPNYRGRQYLLDKKEYRKPIDWGAASPAVQSFRRI, the abundance fitness is -0.007 ± 0.094.

Take IQIFHKGDFSGQMYETTEDCPSIMEQFHMREIHSCKVLEGVWIFYELPNYRGRQYLLDKKEYRKPIDWGAASPAVQSFRRI: the abundance fitness is -0.041 ± 0.11.

As to IQIFTKGDFSGQMYETTEDCPSIMEQFHMREIHSCKVLEGVWIFYELPNYRGRQYLLDKKEYRKPIDWGAASPAVQSFRRI, the abundance fitness was -0.07 ± 0.094.

For the variant IQIFDKGDFSGQMYETTEDCPSIMEQFHMREIHSCKVLEGVWIFYELPNYRGRQYLLDKKEYRKPIDWGAASPAVQSFRRI, the abundance fitness is -0.05 ± 0.062. As for IQIFRKGDFSGQMYETTEDCPSIMEQFHMREIHSCKVLEGVWIFYELPNYRGRQYLLDKKEYRKPIDWGAASPAVQSFRRI, the abundance fitness was -0.002 ± 0.047.

As to IQIFVKGDFSGQMYETTEDCPSIMEQFHMREIHSCKVLEGVWIFYELPNYRGRQYLLDKKEYRKPIDWGAASPAVQSFRRI, the abundance fitness was 0.051 ± 0.039. To IQIFGKGDFSGQMYETTEDCPSIMEQFHMREIHSCKVLEGVWIFYELPNYRGRQYLLDKKEYRKPIDWGAASPAVQSFRRI belongs -0.02 ± 0.039; to IQIFLKGDFSGQMYETTEDCPSIMEQFHMREIHSCKVLEGVWIFYELPNYRGRQYLLDKKEYRKPIDWGAASPAVQSFRRI, 0.013 ± 0.051; to IQIFWKGDFSGQMYETTEDCPSIMEQFHMREIHSCKVLEGVWIFYELPNYRGRQYLLDKKEYRKPIDWGAASPAVQSFRRI, 0.006 ± 0.072. For IQIFPKGDFSGQMYETTEDCPSIMEQFHMREIHSCKVLEGVWIFYELPNYRGRQYLLDKKEYRKPIDWGAASPAVQSFRRI, the abundance fitness was -0.01 ± 0.065. To IQIFFKGDFSGQMYETTEDCPSIMEQFHMREIHSCKVLEGVWIFYELPNYRGRQYLLDKKEYRKPIDWGAASPAVQSFRRI belongs 0.057 ± 0.084; to IQIFIKGDFSGQMYETTEDCPSIMEQFHMREIHSCKVLEGVWIFYELPNYRGRQYLLDKKEYRKPIDWGAASPAVQSFRRI, 0.014 ± 0.086; to IQIFNKGDFSGQMYETTEDCPSIMEQFHMREIHSCKVLEGVWIFYELPNYRGRQYLLDKKEYRKPIDWGAASPAVQSFRRI, -0.062 ± 0.13. Take IQIFCKGDFSGQMYETTEDCPSIMEQFHMREIHSCKVLEGVWIFYELPNYRGRQYLLDKKEYRKPIDWGAASPAVQSFRRI: the abundance fitness is -0.022 ± 0.064.

With IQIFEAGDFSGQMYETTEDCPSIMEQFHMREIHSCKVLEGVWIFYELPNYRGRQYLLDKKEYRKPIDWGAASPAVQSFRRI, the abundance fitness is 0.007 ± 0.066. As for IQIFEIGDFSGQMYETTEDCPSIMEQFHMREIHSCKVLEGVWIFYELPNYRGRQYLLDKKEYRKPIDWGAASPAVQSFRRI, the abundance fitness was -0.009 ± 0.1.

Turning to IQIFEGGDFSGQMYETTEDCPSIMEQFHMREIHSCKVLEGVWIFYELPNYRGRQYLLDKKEYRKPIDWGAASPAVQSFRRI, the abundance fitness was found to be 0.004 ± 0.044.

Regarding IQIFEHGDFSGQMYETTEDCPSIMEQFHMREIHSCKVLEGVWIFYELPNYRGRQYLLDKKEYRKPIDWGAASPAVQSFRRI, the abundance fitness was -0.02 ± 0.15. Next, IQIFEFGDFSGQMYETTEDCPSIMEQFHMREIHSCKVLEGVWIFYELPNYRGRQYLLDKKEYRKPIDWGAASPAVQSFRRI: 0.099 ± 0.13. To IQIFEEGDFSGQMYETTEDCPSIMEQFHMREIHSCKVLEGVWIFYELPNYRGRQYLLDKKEYRKPIDWGAASPAVQSFRRI belongs 0 ± 0.08; to IQIFEDGDFSGQMYETTEDCPSIMEQFHMREIHSCKVLEGVWIFYELPNYRGRQYLLDKKEYRKPIDWGAASPAVQSFRRI, 0.015 ± 0.085.
